Data on one substance can be found in publication doi:10.1101/2024.10.25.620210.

In this experiment the target is α subunit of the Sinapis alba plastid-encoded RNA polymerase (SaPEP) (Sinapis alba) (UniProt Q9XQN8). The experiment can be described thus: cryo-EM structure.

In general, stoichiometry N refers to the number of molecules, sites or subunits per partner or assembly. In the case of “α subunit of the Sinapis alba plastid-encoded RNA polymerase (SaPEP) (from UniProt Q9XQN8 1-327) (natural protein)”, the stoichiometry N came out at 2.
